# Data taken from PMC10567836.
# Biological target: CD45 on human peripheral blood mononuclear cells (human (endogenous in PBMC)) (UniProt P08575)
# Sequence of UniProt P08575 (P08575 26-1306): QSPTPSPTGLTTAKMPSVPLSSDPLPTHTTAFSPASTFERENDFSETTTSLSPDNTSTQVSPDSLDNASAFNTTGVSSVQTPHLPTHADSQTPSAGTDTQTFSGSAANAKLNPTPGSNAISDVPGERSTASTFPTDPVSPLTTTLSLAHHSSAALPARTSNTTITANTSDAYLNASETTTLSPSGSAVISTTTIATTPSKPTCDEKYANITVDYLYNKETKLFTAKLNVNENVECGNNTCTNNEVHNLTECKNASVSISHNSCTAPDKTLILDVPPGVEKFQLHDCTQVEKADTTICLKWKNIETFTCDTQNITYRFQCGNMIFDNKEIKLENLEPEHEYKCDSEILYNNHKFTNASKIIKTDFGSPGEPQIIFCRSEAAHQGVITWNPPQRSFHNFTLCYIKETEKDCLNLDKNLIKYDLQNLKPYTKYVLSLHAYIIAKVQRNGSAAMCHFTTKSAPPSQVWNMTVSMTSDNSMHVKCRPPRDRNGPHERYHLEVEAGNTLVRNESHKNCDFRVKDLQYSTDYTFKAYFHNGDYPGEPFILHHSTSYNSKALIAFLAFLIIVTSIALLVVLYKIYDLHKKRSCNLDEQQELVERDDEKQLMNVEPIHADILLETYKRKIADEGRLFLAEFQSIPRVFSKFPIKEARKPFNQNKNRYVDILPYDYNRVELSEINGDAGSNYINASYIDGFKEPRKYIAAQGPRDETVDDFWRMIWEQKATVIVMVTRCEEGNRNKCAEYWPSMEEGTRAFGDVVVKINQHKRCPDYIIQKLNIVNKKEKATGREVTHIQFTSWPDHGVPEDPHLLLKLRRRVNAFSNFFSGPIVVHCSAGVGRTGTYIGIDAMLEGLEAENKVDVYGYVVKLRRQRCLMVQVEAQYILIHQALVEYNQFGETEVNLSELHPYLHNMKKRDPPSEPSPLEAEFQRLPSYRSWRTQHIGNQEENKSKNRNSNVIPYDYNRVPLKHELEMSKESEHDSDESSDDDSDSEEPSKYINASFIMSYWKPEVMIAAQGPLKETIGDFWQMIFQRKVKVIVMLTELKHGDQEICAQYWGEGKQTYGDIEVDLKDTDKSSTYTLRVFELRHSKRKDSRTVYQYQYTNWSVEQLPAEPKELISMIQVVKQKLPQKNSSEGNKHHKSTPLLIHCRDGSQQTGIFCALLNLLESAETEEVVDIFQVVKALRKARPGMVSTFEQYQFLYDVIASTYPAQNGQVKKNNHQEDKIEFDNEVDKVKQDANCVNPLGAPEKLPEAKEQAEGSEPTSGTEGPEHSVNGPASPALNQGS
substance,measurement,value
HAdV-D64 (Ad19a) protein E3/49K expressed on porcine L23 cells (natural protein),"phosphorylated p56lck(p505) in CD4+ T cells of human PBMC stimulated for 48 h with L23-E3/49K cells (15–20% with L23-control or L23-UL11 cells), intracellular flow cytometry (% of CD4+ T cells)",40
